Positions count from the first letter of the chain named. Names and notes keep the numbering of the source.
B1: LaPPR (Lactobacillus sp. CGMCC 9967) (protein)
chain: MMKILNSFSLKPEQRQTLEAAGHTVIDADKLDDATAQQIDVVYGWNAAATRVNFDRLQFVQAMSAGVDYLPLAELAKHHVLLANTSGIHAEPIAEYVLGALFTISRGILPAIRADRDMWTLRQERPPMTLLKGKTAVIFGTGHIGSTIATKLQALGLHTIGVSAHGRPAAGFDQVMTDVATHEAAGRADVVINALPLTPDTKHFYDEAFFAAASKQPLFINIGRGPSVDMAALTQALKNKQISAAALDVVDPEPLPQDSPLWGMTNVLLTPHISGTVPQLRDKVFKIFNDNLKTLISSGQLASHQVDLTRGY
notes: homodimer
B2: LaPPR (Lactobacillus sp. CGMCC 9967; H143D/H89M) (protein)
chain: B1 chain with H89M, H143D
notes: homodimer
B3: LaPPR (Lactobacillus sp. CGMCC 9967; H89M) (protein)
chain: B1 chain with H89M
notes: homodimer
B4: LaPPR (Lactobacillus sp. CGMCC 9967; H143D/H89M/P256C) (protein)
chain: B1 chain with H89M, H143D, P256C
notes: homodimer
B5: LaPPR (Lactobacillus sp. CGMCC 9967; H143D) (protein)
chain: B1 chain with H143D
notes: homodimer

What was measured:
[1] = molecular target: phenylpyruvate reductase from Lactobacillus sp. CGMCC 9967 (LaPPR) (Lactobacillus sp. CGMCC 9967); assay: crystal structure; apo-LaPPR wild type, sitting drop vapor diffusion, 20 °C, protein 28 mg/mL, 0.1 M citric acid pH 3.5, 14% w/v PEG 1000, 0.01 M beta-nicotinamide adenine dinucleotide; molecular replacement with PDB 3EVT
purified protein = substrate: O=C(O)C(=O)Cc1ccc(O)c(O)c1; assay: purified protein; type: biochemical, Lactobacillus sp. CGMCC 9967; conditions: 2 mM NADH, Tris-HCl 50 mM pH 7.0, 30 °C

Row | stoichiometry N [1] | Molecule | Km (purified protein) | kcat (purified protein) | kcat/Km (purified protein)
1 | 2 | phenylpyruvate reductase from Lactobacillus sp. CGMCC 9967 (LaPPR) (enzyme) |  |  | 
2 |  | B1 | 6.20 ± 0.15 mM | 1.21 ± 0.03 s⁻¹ | 200 M⁻¹ s⁻¹
3 |  | B2 | 3.63 ± 0.17 mM | 2.35 ± 0.12 s⁻¹ | 650 M⁻¹ s⁻¹
4 |  | B3 | 5.74 ± 0.08 mM | 1.37 ± 0.06 s⁻¹ | 240 M⁻¹ s⁻¹
5 |  | B4 | 2.52 ± 0.27 mM | 5.74 ± 0.24 s⁻¹ | 2050 M⁻¹ s⁻¹
6 |  | B5 | 5.03 ± 0.14 mM | 2.08 ± 0.11 s⁻¹ | 410 M⁻¹ s⁻¹

Reference: PMC10992476, “Efficient production of salvianic acid A from L-dihydroxyphenylalanine through a tri-enzyme cascade” (Bioresources and Bioprocessing, 2023)
